Test results taken from the supplement of paper PMC7125110.
± gives the standard error. This sample holds only a part of the variants without activity.

B1: glmS ribozyme (parent)
chain: AUAAAAGCGCCAGAACUACAGAAAUGUAGUUGACGAGGAGGAGGUUUAUCGAAUUUUCGGCGGAUGCCUCCAAA

Columns and labels:
Conditions in all cases: with glucosamine-6-phosphate
glucosamine-6-phosphate [1] = variants of: B1; experiment: self-cleavage kobs at 40 uM GlcN6P; higher = faster cleavage; RNA array
How it was run: (§1)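 Weighted Michaelis–Menten fits across concentrations supplied kcat and KM, based on kobs from one- or two-exponential decay fits to normalised per-tile medians. The data came from barcoded ribozyme variants transcribed in situ by E. coli RNA polymerase on sequenced MiSeq chips and tracked at 37 °C by a hybridised Cy3 probe. Glucosamine-6-phosphate (40 μM to 10 mM) in HEPES/KCl/Mg(OAc)2 buffer was flowed in.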

glucosamine-6-phosphate [2] = variants of: B1; experiment: self-cleavage kobs at 640 uM GlcN6P; higher = faster cleavage; RNA array
How it was run: as §1

glucosamine-6-phosphate [3] = variants of: B1; experiment: self-cleavage kobs at 2500 uM GlcN6P; higher = faster cleavage; RNA array
How it was run: as §1

glucosamine-6-phosphate [4] = variants of: B1; experiment: self-cleavage kobs at 10000 uM GlcN6P; higher = faster cleavage; RNA array
How it was run: as §1

glucosamine-6-phosphate [5] = variants of: B1; experiment: self-cleavage kobs at 160 uM GlcN6P; higher = faster cleavage; RNA array
How it was run: as §1

| Variant | self-cleavage kobs at 40 uM GlcN6P (glucosamine-6-phosphate [1]) [s⁻¹] | self-cleavage kobs at 640 uM GlcN6P (glucosamine-6-phosphate [2]) [s⁻¹] | self-cleavage kobs at 2500 uM GlcN6P (glucosamine-6-phosphate [3]) [s⁻¹] | self-cleavage kobs at 10000 uM GlcN6P (glucosamine-6-phosphate [4]) [s⁻¹] | self-cleavage kobs at 160 uM GlcN6P (glucosamine-6-phosphate [5]) [s⁻¹] |
| --- | --- | --- | --- | --- | --- |
| AUAAAAGUGCCAGAACUACAGAAAUGUAGUUGACGAGGAGGUGAUUUAUCGAAUUCUCGGCGGAUGCCUCCAAA [C8U A42U G44A U56C] | < 1e-05 | – | – | – | – |
| AUAAAAGCGCCAGAAAUACAGAAAUGUAGUUGACGAGGACGAGGUUUAUCGAAUUUUCGGCGGAUGCCUCCAAA [C16A G40C] | < 1e-05 | 4.46e-05 ± 1.5e-05 | 0.000112 ± 1.8e-05 | – | – |
| AUAAAAGCGCCAGAACUACAGAAAUGUAGUUCACGAGGAGGAGGUUUCUCGAAUUUUCGCCGGAUGCCUCCAAA [G32C A48C G60C] | < 1e-05 | – | – | – | – |
| AUAAAAGCCACAGAACUACAGAAAUGUAGUUGACGAGGAGGAGGUUUAUCGCAUUUUCGGUGGAUGCCUCCAAA [G9C C10A A52C C61U] | < 1e-05 | – | – | < 1e-05 | – |
| AUAAAAGCGCCAGAACUACAGAAAUGUAGUUGACGAGGAGAAGGUUUAUGGAAUUUUCGGUGGAUGCCUCCAAA [G41A C50G C61U] | < 1e-05 | < 1e-05 | < 1e-05 | < 1e-05 | < 1e-05 |
| AUAAAAGCGCAAGAACUACAGAAAUGUAUUUUACGAGGAGGAGAUUUAUCGAAUUUUCGGCGGAUGCCUCCAAA [C11A G29U G32U G44A] | < 1e-05 | – | – | – | – |
| AUAAAAGCGCCAGAACUACAGAAAUGUAGUUGACAAGGAGGGGGUUUAUCGGAUUUUCGGCGGAUGCCUUCAAA [G35A A42G A52G C70U] | < 1e-05 | – | < 1e-05 | – | < 1e-05 |
| AUAAAAGCGCCAGAACUACAGAAAUGUAGUUGACGAGGAGGAGGAUUAUCGAAUUUUCGGCGGAUGCAUCCAAA [U45A C68A] | < 1e-05 | < 1e-05 | 3.91e-05 ± 1.9e-05 | – | < 1e-05 |
| AUAAAAGCGCUAGAUCUACAGAAAUGUAGUUGACGAGGAGGAGGUUUAUCGAAUUUUCGGCGGAUGCCGCCAAA [C11U A15U U69G] | 6.47e-05 ± 2.5e-05 | – | – | – | – |
| AUAAAAGCGCCAGAACUACAAAAAUGUAGUUGACGAGGAGGAGGUUUAUCGAAUUUUCGGCGGAUGCCUACAAA [G21A C70A] | 3.65e-05 ± 1.8e-05 | – | 7.55e-05 ± 1.5e-05 | 0.000262 ± 6.9e-05 | – |
| AUAAAAGCGCCAGAACUACAGAAAUGUAGUUGACGCGGAUGAGGUUUAUCGAAUUUUCGGCGGAUGUCUCCAAA [A36C G40U C67U] | < 1e-05 | < 1e-05 | – | < 1e-05 | < 1e-05 |
| AUAAAUGCGCCAGAACUACAGAAAUGUAGUUGACGAGGAGGAGGUUUCUUGUAUUUUCGGUGGAUGGGUCCAAA [A6U A48C C50U A52U C61U C67G C68G] | < 1e-05 | – | – | – | – |
| AUAAAAGCGCCAGAACUACAGAAAUGUAGUUGUCGAGGAAGCGGUUUAUCGAAUUUUCGGCGGAUGCCUCCAAA [A33U G40A A42C] | < 1e-05 | < 1e-05 | < 1e-05 | < 1e-05 | < 1e-05 |
| AUAAAAGCGCCAGAACUACAGAAAUGUAGUUGACGAGGAGGAGGUUUAUCCAUUUUCCUGCGGAUGCCUCCAAA [G51C A53U U57C G59U] | < 1e-05 | – | – | – | – |
| AUAAAUGGGCCAGAACUACAGAAAUGUAGUUGACGAGGAGGAGGUUUUUCGAAUUUUCGGCCGAUGCCUCCAAA [A6U C8G A48U G62C] | < 1e-05 | – | – | – | – |
| AUAAAUGCGCCAAUACUACAGAAAUGUAGUUGACGAGGAGGAGGUUUAUCGAAUUUUCGGCGGAUGCCUCCAAA [A6U G13A A14U] | < 1e-05 | – | – | < 1e-05 | < 1e-05 |
| AUAAAAGCGCCACAACUACAGAAAUGUAGUUGACUAGGAGUAAGUUUAUCGAAUUUUCGCCGGAUGCCUCCAAA [G13C G35U G41U G43A G60C] | < 1e-05 | – | – | – | – |
| AUAAAAGCGCCAGAACUACAGAAAUGUAGUUGACGAGGAGGAGUUUUAUCGAAUUUUCGGCGGAUUCCUCCAAA [G44U G66U] | < 1e-05 | < 1e-05 | < 1e-05 | < 1e-05 | < 1e-05 |
| AUAAAAGCGCCAGAAAUACAGAAAUGUAGUUGACGAGGAGGAGGUUUAUCGAAUUUUCGGCCGAUGCCUCCAAA [C16A G62C] | < 1e-05 | < 1e-05 | < 1e-05 | < 1e-05 | < 1e-05 |
| AUAAAAGCGCCAGAACUACAGAAAUGUAGUUAACGAGGAGGAGGUUUAUCGAAUUUUCGGCAGAUGCCUCCAAA [G32A G62A] | < 1e-05 | < 1e-05 | – | < 1e-05 | < 1e-05 |
| AUAAAAGCGCUAGAACUACAGAAAUGUAGUUGACGAGGAGGAGGUUUAUCGAAUUUUCCGCGGAUGCCUCGAAA [C11U G59C C71G] | < 1e-05 | – | – | – | – |
| AUAAAAGCGCCAUAACUACAGAAAUGUAGUUGACGAGUAGGAGGUUUAUCGGAUUUUCGGCGGAUGCGGCCAAA [G13U G38U A52G C68G U69G] | 0.000165 ± 5.9e-05 | – | – | 8.14e-05 ± 2.1e-05 | – |
| AUAAAAGCCCCAGAACUACAGAAAUGUAGUUGACGGGGAGGAGGUUUAUCGAAUUUUCGGCGGAUGCCUCCAAA [G9C A36G] | < 1e-05 | < 1e-05 | – | < 1e-05 | – |
| AUAAAAGCGCCAGCACUACAGAAAUGUAGUUGACUAGGAGGACGUUUAUCGAAUUUUCGGCGGAUGCCUCCAAA [A14C G35U G43C] | < 1e-05 | – | – | – | – |
| AUAAAUGCGCCAGAACUACAGAAAUGUAGUUGACGCGGAGGAGGUUUAUUGAAUUUUCGGCGGGUGCCUCCAAA [A6U A36C C50U A64G] | < 1e-05 | – | – | – | – |
| AUAAAAGCGCCUGAACUACAGAAAUGUAGUGGGCGAGGAGGAGGUUUAUUGAAUUUUCGGCGGAUGCCUCCAAA [A12U U31G A33G C50U] | < 1e-05 | – | – | – | – |
| AUAAAAGCCCCAGAACUACAGAAAUGUAGUUCACGAGGAGGAGGUUUAUCGAAUUUUCGGCGGAUGCAUCCAAA [G9C G32C C68A] | < 1e-05 | < 1e-05 | < 1e-05 | < 1e-05 | – |
| AUAAAAGCGCCAGAACUACAGAAAUGUACUUGACGAGGAGGCCGUUUAUCGAAAUUUCGGCGGAUGCCUCCAAA [G29C A42C G43C U54A] | < 1e-05 | – | – | – | – |
| AUAAAAGCGCAAGACCUACAGAAAUGUAGUUGACGAGGAGGAAGUUUAUCGAAUUUUCGGCGGAUGCCUCCAAA [C11A A15C G43A] | < 1e-05 | – | – | < 1e-05 | – |
| AUAAAAGCGUCAGAACUACAGAAAUGUAGUUGACGAGGACGAGGUUUAUCGAAUUUUCGGCGGAUGCCUCCAAA [C10U G40C] | < 1e-05 | – | < 1e-05 | < 1e-05 | < 1e-05 |
